Several values for one entry are separate records, joined by “and”; a condition that tells them apart may be missing. Equal entries are not always repeated. Entries after “also recorded” stand apart in the source; their conditions may differ. Where two headings read alike, the source gives them in different places. Marks after values point to notes of the source that are not given here.
Columns and labels:
[1] = test system: tumor xenograft mouse model; conditions: free drug; before effective anti-tumor activity could be observed; cited from earlier work
[2] = Plasma pharmacokinetic analysis; assay type: in vivo, dog
Description: Plasma pharmacokinetic analysis was conducted in six dogs sequentially enrolled in the trial. Blood was collected at 0, 2, 10, and 30 minutes, and at 1, 2, 8, and 24 hours after treatment.
(§1) Tubes were centrifuged, and plasma collected and stored at –80° C.
For the analysis of EC0531 concentrations in plasma, the EC0531 was extracted from 100 µL of dog plasma by 96-well solid phase extraction (SPE). Internal standard was added to all samples prior to extraction using a Strata X-A SPE plate (Phenomenex, Torrance, CA, USA). The eluate was collected, evaporated, and finally reconstituted with 85/15 water/acetonitrile with 40 mM mannitol. The extracted samples were injected into a UPLC/MS/MS system (Waters, Milford, MA, USA) using a BEH C18 reverse phase column (Waters) implementing a mobile phase gradient. Incurred sample concentrations were then back-calculated against a calibration curve prepared in blank dog plasma.
(§2) Internal standard was added to all samples prior to extraction using a 200 µL SLE+ plate (Biotage, Charlotte, NC, USA). The eluate was collected, evaporated, and reconstituted with acetone prior to sealing and heating the collection plate for 1 hour. After incubation, the extracts were again evaporated and finally reconstituted prior to injection. The extracted samples were injected into a UPLC/MS/MS system (Waters) using a BEH shield RP18 reverse phase column (Waters) and eluted under isocratic conditions. […] Incurred sample concentrations were then back-calculated against a calibration curve prepared in blank dog plasma. […] Samples were homogenized in buffer with a bead beater, or hand held homogenizer. Aliquots (100 µL) of each sample were spiked with 400 µL internal standards in acetone. The extracts were sealed and incubated at 55° C for 1 hour. The extracts were then evaporated to remove acetone, and reconstituted. Finally, reconstituted samples were analyzed by injection into a UPLC-MS/MS system (Waters) to evaluate concentrations of EC0531 and metabolites against a prepared calibration curve.

[3] = Phase I dose escalation: safety, tolerability, MTD (VCOG-CTCAE); assay type: in vivo, dog; conditions: dog, in vivo; intravenous, every two weeks; dogs with iUC; read-out: maximum tolerated dose (MTD)
Description: (§3) […] […] The 10 pet dogs in the pilot study included six neutered male dogs and four spayed female dogs of a variety of breeds and weighing between 5 and 46 kg.
(§4) Dogs in dosage cohorts were enrolled using a 3+3 trial design. Inter-patient and intra-patient dose escalation was permitted. Drug tolerability was assessed by owner questionnaire, physical exam, CBC the day of treatment and seven days following treatment, and biochemistry panel at four-week intervals. Toxicity was graded using VCOG-CTCAE criteria. The EC0531 dose was increased by 0.02 mg/kg in each subsequent dose cohort if no dose limiting toxicity (DLT) was recorded. DLT was defined as an adverse event (AE) > grade 2. When a grade 3 AE occurred, the cohort was expanded to at least six dogs including six new dogs, i.e. six dogs that had not received prior EC0531 at lower doses. If more than one grade 3 AE or any grade 4 or 5 AE occurred, then six dogs were enrolled at the previous cohort. The MTD was defined as the highest dose tolerated by six dogs with no more than one grade 3 AE and no grade 4–5 AE. Intra-patient dose escalation was permitted if no AEs had occurred after two doses of the drug had been administered.
(§5) In individual dogs, the EC0531 dose was reduced by 10% if grade 2 toxicity was noted, and by 20% if grade 3 or higher toxicity was noted. Treatment was delayed by one week if the neutrophil count was <3,000/mm^3 or platelet count <100,000/mm^3 the day treatment was due.

[4] = test system: dogs with naturally-occurring invasive urothelial carcinoma (iUC); test: as above; assay type: in vivo, dog
Description: as §3, §4, §5

[5] = test system: naturally-occurring invasive urothelial carcinoma (iUC); test: Phase I/II antitumor activity (tumor response, progression free interval); assay type: in vivo, dog
Description: In order to estimate antitumor activity, the cohort of dogs receiving the MTD was expanded with the goal to assess antitumor effects in a minimum of 24 dogs treated at or above the MTD [37]. The effects of EC0531 on the tumor were assessed by cystosonography using a specific standardized protocol and physical exam including rectal exam at four-week intervals. Complete cancer staging (thoracic radiography with left lateral, right lateral, and ventrodorsal projections; abdominal radiography with right lateral and ventrodorsal projections; and complete abdominal ultrasonography) was performed at eight-week intervals. The response in the primary tumor was determined by comparing volume measurements by cystosonography as follows: complete remission (CR, no cancer detected), partial remission (PR, ≥50% decrease in tumor volume and no new tumor lesions), stable disease (SD, <50% change in tumor volume and no new tumor lesions), and progressive disease (PD, ≥50% increase in tumor volume or the development of new tumor lesions). Metastatic lesion response was assessed by RECIST criteria. Progression free interval (PFI) was defined as the time from start of EC0531 treatment until PD of local or metastatic lesion(s). Permission to perform a necropsy was requested at the time of the dog’s death (death from cancer or other causes). Tissues collected at necropsy were examined histologically and immunohistochemically to detect FR expression in primary and metastatic lesions.
Stepwise Cox regression analysis was performed to assess the relationship between predictor variables and […] (PFI). The following variables were assessed: age, weight, sex, peripheral blood neutrophil-to-lymphocyte ratio at the start of treatment, tumor location (bladder vs urethra/prostate vs both), treatment beginning at < MTD or ≥ MTD, pretreatment with chemotherapy, concurrent use of COXi, IHC/ICC score, and best tumor response (PD vs SD vs PR/CR). Variables with p-values < 0.25 in univariate models were then included in multivariate modeling. Variable(s) with a p-value < 0.05 in the final multi-variable Cox regression model were considered to have a significant effect on PFI.

[6] = Drug concentration in iUC tissue samples; assay type: in vivo, dog; conditions: three dogs, approximately three hours after treatment, 0.28 mg/kg EC0531
Description: as §1, §2

[7] = test system: U.S. National Cancer Institute 60 tumor cell lines; parameters: method as in PMID 16489930; conditions: percent of cell lines tested; cited from earlier work
canine iUC = conditions: randomized trial in dogs with iUC; cited from earlier work
[8] = Avg of six dogs, EC0347 in plasma after single EC0531 0.28 mg/kg IV
[9] = dogs that had received and failed prior chemotherapy
[10] = non-responders, dogs with PD after the initial two treatments
[11] = dog, plasma, iv, 0.28 mg/kg, Avg of six dogs, EC0531 in plasma, single 0.28 mg/kg IV

In the case of `CC[C@]1(O)C[C@@H]2CN(CCc3c([nH]c4ccccc34)[C@@](C(=O)OC)(c3cc4c(cc3OC)N(C)[C@H]3[C@@](O)(C(=O)NN)[C@H](O)[C@]5(CC)C=CCN6CC[C@]43[C@@H]65)C2)C1` [DAVLBH, desacetylvinblastine monohydrazide], the “toxicity in tumor xenograft mouse model” value [1] is listed as “unacceptable toxicity”.

With `CCCC(=O)OCN(C(=O)[C@@H](NC(=O)[C@H]1CCCCN1C)C(C)CC)[C@H](C[C@@H](OC(C)=O)c1nc(C(=O)N[C@@H](Cc2ccc(O)cc2)C[C@H](C)C(=O)NN)cs1)C(C)C` (stereo partly shown) [EC0347] the “Cmax, EC0347 (free drug)” value [2, 8] was 2.3 ng/mL, the “Tmax, EC0347 (free drug)” value [2, 8] was 12.0 min and the “Tmax, EC0347 (free drug)” value ([2]; individual dogs #1-6 (c0), EC0347 in plasma after single EC0531 0.28 mg/kg IV) was 10.0 min.

For `CCCC(=O)OCN(C(=O)[C@@H](NC(=O)[C@H]1CCCCN1C)[C@@H](C)CC)[C@H](C[C@@H](OC(C)=O)c1nc(C(=O)N[C@@H](Cc2ccc(O)cc2)C[C@H](C)C(=O)NNC(=O)OCCSSC[C@H](NC(=O)[C@H](CCC(=O)NC[C@H](O)[C@@H](O)[C@H](O)[C@H](O)CO)NC(=O)CC[C@H](NC(=O)[C@H](CCC(=O)NC[C@H](O)[C@@H](O)[C@H](O)[C@H](O)CO)NC(=O)CC[C@H](NC(=O)[C@H](CCC(=O)NC[C@H](O)[C@@H](O)[C@H](O)[C@H](O)CO)NC(=O)CC[C@H](NC(=O)c2ccc(NCc3cnc4nc(N)[nH]c(=O)c4n3)cc2)C(=O)O)C(=O)O)C(=O)O)C(=O)O)cs1)C(C)C` [EC0531], the MTD [3] was 0.26 mg/kg, the “tolerability of treatment at the MTD” value ([4]; 0.26 mg/kg every two weeks) was “well tolerated” and the “withdrawal from the study due to AE / toxicity” value ([4]; 28 dogs) was “No dog withdrew; also recorded: no dogs were removed”. For the same molecule, the toxicity noted ([4]; 28 dogs, 311 doses) was “neutropenia, anorexia, or lethargy”, the overall tolerability ([4]; 28 dogs, total of 311 doses) was “generally well tolerated” and the infusion reaction ([4]; a single dog, transient) was “hypotension, compensatory tachycardia, and subsequent syncopal episode”. The “Adverse events defined by VCOG-CTCAE” value ([4]; dose 0.28 mg/kg, 10 dogs, 63 doses) was 1 dog with G1 vomiting^a 1 dog with G1lethargy and G3 weight loss (DLT)^a 1 dog with G4 neutropenia (DLT)^b 1 dog with G4 infusion reaction (DLT)^b, the “Adverse events defined by VCOG-CTCAE” value ([4]; dose 0.34 mg/kg, 1 dog, 5 doses) was “G3 anorexia and 1 dog with G3 anorexia (DLT)” and the “Adverse events defined by VCOG-CTCAE” value ([4]; dose 0.18 (mg/kg), 1 dog, 6 doses) was 1 dog with G1 anorexia. The “Adverse events defined by VCOG-CTCAE” value ([4]; dose 0.20 (mg/kg), 4 dogs, 14 doses) was 1 dog with G2 anorexia, the “Adverse events defined by VCOG-CTCAE” value ([4]; dose 0.22 (mg/kg), 4 dogs, 10 doses) was 1 dog with G1 lethargy and the “Adverse events defined by VCOG-CTCAE” value ([4]; dose 0.24 (mg/kg), 4 dogs, 16 doses) was 1 dog with G2 neutropenia. The “Adverse events defined by VCOG-CTCAE” value ([4]; dose 0.26 (mg/kg), 6 dogs, 33 doses) was 1 dog with G1 lethargy 1 dog with G1 vomiting and G1 neutropenia 1 dog with G2 neutropenia 1 dog with G3 neutropenia (DLT) and G2 diarrhea, the “Adverse events defined by VCOG-CTCAE” value ([4]; dose 0.30 (mg/kg), 2 dogs, 15 doses) was 1 dog with G3 neutropenia (DLT) and the “Adverse events defined by VCOG-CTCAE” value ([4]; dose 0.32 (mg/kg), 1 dog, 2 doses) was “No adverse events observed”. For the same molecule, the “toxicity observed at doses higher than the MTD” value ([4]; doses above 0.26 mg/kg every two weeks) was “grade 3-4 neutropenia and gastrointestinal toxicity”, the thrombocytopenia ([4]; one dog, heavily pretreated with chemotherapy, chronically low platelet counts) was “grade 2 thrombocytopenia” and the “outcome of weekly dose interval” value ([4]; pilot study in pet dogs) was “suspended due to neutropenia”. The neutrophil nadir ([4]; pilot study in pet dogs with iUC, n = 10 dogs) was “four to seven days after treatment”, the “outcome of twice weekly dosing” value ([4]; pilot study in pet dogs, dosing not continued) was “dose limiting-neutropenia and anorexia” and the “PR, percent of dogs” value ([5]; 28 dogs) was 11%. The clinical benefit rate ([5]; 28 dogs) was 71%, the PFI range ([5]; all dogs (n = 28)) was 24 to 649 days and the “median PFI” value ([5]; all dogs (n = 28)) was 103 days. The “hazard ratio for PFI” value ([5]; dogs achieving PR vs dogs with PD) was 0.003 (95% CI 0–0.066), the “HR for earlier PD” value [5, 9] was 4.6 (95% CI 1.2–16.7) and the PFI range [5, 9] was 34–162. The “median PFI” value [5, 9] was 95 days, the PFI range ([5]; dogs with SD) was 56 to 296 days and the “median PFI” value ([5]; dogs with SD) was 200 days. For the same molecule, the “hazard ratio for PFI” value ([5]; dogs with SD vs dogs with PD) was 0.013 (95% CI 0.001–0.124), the PFI range [5, 10] was 24–47 and the “median PFI” value [5, 10] was 34 days. The “clinical benefit (PR + SD), number of dogs” value ([5]; of 28 dogs) was 20 dogs, the “partial remission (PR), number of dogs” value ([5]; of 28 dogs) was “three” and the “stable disease (SD), number of dogs” value ([5]; of 28 dogs) was 17 dogs. For the same molecule, the “PFI or time of censoring” value ([5]; the three individual dogs achieving PR) was 162 days and 251 days and 649 days, the tumor response ([5]; the two dogs receiving all of their doses below the MTD) was “SD and PD” and the Tmax ([2]; Norwegian Elkhound, dog, individual dogs #1-6 (c0), EC0531 in plasma, single 0.28 mg/kg IV) was 2 min. The AUC(0-inf) [2, 11] was 1900 ng·h/mL, the AUC(0-t) [2, 11] was 1890 ng·h/mL and the C0 [2, 11] was 3990 ng/mL. For the same molecule, the Cmax [2, 11] was 3490 ng/mL, the clearance [2, 11] was 2.78 mL/min/kg and the Vd ([2]; dog, plasma, iv, 0.28 mg/kg, Avg of six dogs, EC0531 in plasma, single 0.28 mg/kg IV, read-out: Vz) was 0.102 L/kg. For the same molecule, the half-life ([2]; dog, plasma, iv, 0.28 mg/kg, Avg of six dogs, EC0531 in plasma, single 0.28 mg/kg IV, read-out: t1/2) was 24.7 min, the half-life ([2]; dog, plasma, iv, 0.28 mg/kg, dogs, 0.28 mg/kg IV, biphasic pharmacokinetic behavior, read-out: elimination half-life) was ~25 min and the half-life ([2]; dog, plasma, iv, 0.28 mg/kg, individual dogs #1-6 (c0), EC0531 in plasma, single 0.28 mg/kg IV, read-out: t1/2) was 22 min. The Tmax ([2]; dog, Avg of six dogs, EC0531 in plasma, single 0.28 mg/kg IV) was 2 min, the “peak plasma drug concentration relative to concentrations required to kill FR-expressing tumor cells in vitro” value ([2]; dogs receiving 0.28 mg/kg, in vitro concentrations from ref 14) was “approximately 700 times” and the level at 3 h ([6]; dog, iUC tumor tissue, iv, read-out: concentration of EC0531 in iUC tissues) was 3.9 ng/mL. The “concentration of EC0531 in iUC tissues” value [6] was “below the level of detection”.

For `CC[C@H](C)[C@H](NC(=O)[C@H]1CCCCN1C)C(=O)N(COC(=O)CC(C)C)[C@H](C[C@@H](OC(C)=O)c1nc(C(=O)N[C@@H](Cc2ccc(O)cc2)C[C@H](C)C(=O)O)cs1)C(C)C` [tubulysin A], the “cell lines with growth inhibition” value [7] is given as 33%.

For `CC[C@]1(O)C[C@@H]2CN(CCc3c([nH]c4ccccc34)[C@@](C(=O)OC)(c3cc4c(cc3OC)N(C)[C@H]3[C@@](O)(C(=O)OC)[C@H](OC(C)=O)[C@]5(CC)C=CCN6CC[C@]43[C@@H]65)C2)C1` [vinblastine], the “PR, percent of dogs” value (canine iUC) is given as 22%.
